28 substances from patent US20060263849A1, “Glucagon-like peptide-1 analogs” (priority 2000, published 2006) can be followed below.

A short description of data set [1]: GLP Aggregation Assay (time to onset of aggregation, turbidity at 350 nm). Particulars: for Aggregation Time: 0.3 mg/mL in 10 mM citrate, 10 mM phosphate, 150 mM NaCl, pH 7.4 to 7.5, 37° C., stirred, turbidity at 350 nm; for Aggregation Time in Hours: *Aggregation time determined at 30° C. In kind it is physicochemical. On the procedure: GLP peptides of this invention were analyzed with respect to their potential to aggregate in solution. In general, peptides in solution were stirred at elevated temperature in a suitable buffer while recording turbidity at 350 nm as a function of time. Time to the onset of aggregation was measured to quantify the potential of a given GLP molecule to aggregate under these stressed conditions.
A GLP-1 compound was first dissolved under alkaline conditions (pH 10.5) for 30 minutes to dissolve any pre-aggregated material. The solution was then adjusted to pH 7.4 and filtered. Specifically, 4 mg of a lyophilized GLP-1 compound was dissolved in 3 ml of 10 mM phosphate/10 mM citrate. The pH was adjusted to 10.0-10.5 and held for 30 minutes. The solution was adjusted with HCl to pH 7.4 and filtered through a suitable filter, for example a Millex GV syringe filter (Millipore Corporation, Bedford, Mass.). This solution was then diluted to a final sample containing 0.3 mg/mL protein in 10 mM citrate, 10 mM phosphate, 150 mM NaCl, and adjusted to pH 7.4 to 7.5. […] Every five minutes the turbidity of the solution was measured at 350 nm on an AVIV Model 14DS UV-VIS spectrophotometer (Lakewood, N.J.). For 30 seconds prior to and during the measurement the solution was stirred using a magnetic stir bar from Starna Cells, Inc. (Atascadero, Calif.). An increase in OD at 350 nm indicates aggregation of the GLP-peptide. The time to aggregation was approximated by the intersection of linear fits to the pre-growth and growth phase according to method of Drake (Arvinte T, Cudd A, and Drake A F. (1993) J. Bio. Chem. 268, 6415-6422).
The cuvette was cleaned between experiments with a caustic soap solution (e.g., Contrad-70).
The results for a number of GLP-1 compounds of the present invention are reported in Table 1 as the time in hours required for the compound to aggregate.

The subject of a further data set is GLP-1 receptor. The data set is described as follows: GLP-1 receptor activation, in vitro assays. It counts as cell-based. Particulars: activity relative to the activity of GLP-1(7-37)OH. From the text: “Insulinotropic activity” refers to stimulating insulin secretion in response to elevated glucose levels, thereby causing glucose uptake by cells and decreased serum glucose levels. Insulinotropic activity can be assessed by methods known in the art, including using in vivo experiments and in vitro assays that measure GLP-1 receptor binding activity or receptor activation, e.g., assays employing pancreatic islet cells or insulinoma cells, as described in EP 619,322 to Gelfand, et al., and U.S. Pat. No. 5,120,712, respectively. The entire teachings of these references are incorporated herein by reference.
The ability of the GLP-1 compounds of the present invention to activate the GLP-1 receptor was assessed using in vitro assays such as those described in EP 619,322 to Gelfand, et al., and U.S. Pat. No. 5,120,712, respectively. The entire teachings of these references are incorporated herein by reference.

Data set [2] is described as follows: Zinc precipitation of GLP-1 compounds (A280 of supernatant). In kind it is physicochemical. Particulars: HEPES pH 7.4, 22° C., 18 hours. On the procedure:
Individual GLP-1 compounds were prepared as described in Examples 1 or 2. 3 mg of an individual lyophilized GLP molecule was dissolved in 3 ml 0.1 M HEPES buffer pH 10.5. The pH of the resulting solution was then adjusted to between 10.0 and 10.5 with 0.2 N NaOH. The solution was stirred at ambient temperature for 30 minutes and the solution was then adjusted to a pH of 7.4 with 0.2 N HCl. The solution was filtered through an appropriate syringe filter, for example a Millex GV syringe filter (Millipore Corporation, Bedford, Mass.), and the concentration of the GLP-1 compound was estimated by measuring the absorption at 280 nm in a spectrophotometer, for example a Beckman DU640. The protein concentration was then adjusted to 200 μM in HEPES pH 7.4.
The filtered GLP-1 solutions (100 μl) were diluted with 100 μl of 0.1 M HEPES pH 7.4 containing various levels of zinc chloride in an ELISA plate, (e.g. Falcon Microtest™ 96) resulting in 200 μl of solution containing various levels of zinc chloride and 100 μM GLP-1 compounds. These solutions were incubated at ambient temperature (22° C.) for 18 hours and then centrifuged, for example, in a Jouan CR412 centrifuge with microplate adapters. 150 μl of the supernatants after centrifugation were then transferred to a UV-readable ELISA microtiter plate (e.g. Costar UV plate) and the OD at 280 was determined in a microplate reader (e.g. Molecular Devices SPECTRAmax PLUS, SOFTmax PRO). A280 values are the result of two independent determinations.

Where [3] appears, read: Zn/GLP-1 molar ratio 0, 100 μM GLP-1 compound.
Setting [4] is: Zn/GLP-1 molar ratio 0.3, 100 μM GLP-1 compound.
The mark [5] stands for this setting: Zn/GLP-1 molar ratio 0.5, 100 μM GLP-1 compound.
[6] abbreviates: Zn/GLP-1 molar ratio 0.7, 100 μM GLP-1 compound.
Setting [7] is: Zn/GLP-1 molar ratio 1, 100 μM GLP-1 compound.
[8] abbreviates: Zn/GLP-1 molar ratio 2, 100 μM GLP-1 compound.
The mark [9] stands for this setting: Zn/GLP-1 molar ratio 3, 100 μM GLP-1 compound.
Where [10] appears, read: Zn/GLP-1 molar ratio 5, 100 μM GLP-1 compound.

Where no end group is shown, it is not given here. Bounds are passed on as bounds.

Regarding “Ala^8-Glu^26-GLP-1(7-37)OH (HAEGTFTSDVSSYLEGQAAEEFIAWLVKGRG)”, the “Aggregation Time” value in data set [1] is over 24 h. The “GLP-1 Receptor Activation” value with GLP-1 receptor is on record as 0.7.
For the substance “Ala^8-His^26-GLP-1(7-37)OH (HAEGTFTSDVSSYLEGQAAHEFIAWLVKGRG)”, in data set [1], the “Aggregation Time” value is over 24 h. Besides, in the data set with GLP-1 receptor, the “GLP-1 Receptor Activation” value came to 0.8.
Take GLP-1(7-37)OH [reference compound]: in data set [1], the “Aggregation Time” value was 1 h. Also, the A280 in data set [2] (setting [3]) was found to be 0.337; in data set [2] (setting [4]) it was 0.318; in data set [2] (setting [5]), 0.329; in data set [2] (setting [6]), 0.253; in data set [2] (setting [7]), 0.148; in data set [2] (setting [8]), 0.092. The A280 in data set [2] (setting [9]) was 0.081; in data set [2] (setting [10]) it was 0.074.
As to “Gly^8-GLP-1(7-37)OH (HGEGTFTSDVSSYLEGQAAKEFIAWLVKGRG-OH; UniProt P01275 98-128, looked up, variant A8G) [reference compound]”, the A280 in data set [2] (setting [3]) stood at 0.32; in data set [2] (setting [4]), 0.166; in data set [2] (setting [5]) it was 0.151; in data set [2] (setting [6]) it was 0.156; in data set [2] (setting [7]), 0.119; in data set [2] (setting [8]) it was 0.089. Further, the A280 in data set [2] (setting [9]) worked out at 0.085; in data set [2] (setting [10]) it was 0.078.
Turning to Gly^8-Glu^22-GLP-1(7-37)OH, in data set [1], the “Aggregation Time” value came out at 19 h.
As to “Gly^8-Glu^30-GLP-1(7-37)OH (HGEGTFTSDVSSYLEGQAAKEFIEWLVKGRG)”, the “Aggregation Time” value in data set [1] is over 40 h. The “GLP-1 Receptor Activation” value in the data set on GLP-1 receptor is reported as 0.29.
As for “Gly^8-His^11-GLP-1(7-37)OH (HGEGHFTSDVSSYLEGQAAKEFIAWLVKGRG)”, in data set [1], the “Aggregation Time in Hours” value is 9* Hours. The “GLP-1 Receptor Activation” value with GLP-1 receptor is on record as 0.282.
As to “Val^8-Ala^11-GLP-1(7-37)OH (HVEGAFTSDVSSYLEGQAAKEFIAWLVKGRG)”, in data set [1], the “Aggregation Time” value stood at 10 h. Besides, the “GLP-1 Receptor Activation” value in the data set with GLP-1 receptor is reported as 0.021.
With “Val^8-Ala^16-GLP-1(7-37)OH (HVEGTFTSDASSYLEGQAAKEFIAWLVKGRG)”, the “Aggregation Time” value in data set [1] amounted to 16 h. Besides, the “GLP-1 Receptor Activation” value in the data set on GLP-1 receptor was 0.112.
With “Val^8-Ala^27-GLP-1(7-37)OH (HVEGTFTSDVSSYLEGQAAKAFIAWLVKGRG)”, the “Aggregation Time” value in data set [1] was 2 h.
As to “Val^8-Ala^33-GLP-1(7-37)OH (HVEGTFTSDVSSYLEGQAAKEFIAWLAKGRG)”, the “Aggregation Time” value in data set [1] was 20 h. For the same substance, the “GLP-1 Receptor Activation” value in the data set with GLP-1 receptor is on record as 0.1.
On the same counts, the results for “Val^8-Asp^30-GLP-1(7-37)OH (HVEGTFTSDVSSYLEGQAAKEFIDWLVKGRG)” are over 45 h and 0.15.
In the case of “Val^8-GLP-1(7-37)OH [reference compound]”, in data set [1], the “Aggregation Time” value was 0.9 ± 0.2 h. In addition, the A280 in data set [2] (setting [3]) amounted to 0.3; in data set [2] (setting [4]), 0.27; in data set [2] (setting [5]), 0.26; in data set [2] (setting [6]), 0.124; in data set [2] (setting [7]), 0.06; in data set [2] (setting [8]), 0.025. The A280 in data set [2] (setting [9]) is reported as 0.021; in data set [2] (setting [10]), 0.019.
On to “Val^8-Glu^16-GLP-1(7-37)OH (HVEGTFTSDESSYLEGQAAKEFIAWLVKGRG)”, for which, in data set [1], the “Aggregation Time” value turned out to be 12 h. In addition, the “GLP-1 Receptor Activation” value in the data set with GLP-1 receptor stood at 0.047.
On to “Val^8-Glu^22-Ala^27-GLP-1(7-37)OH (HVEGTFTSDVSSYLEEQAAKAFIAWLVKGRH)”, for which the “Aggregation Time” value in data set [1] was over 45 h.
With “Val^8-Glu^22-GLP-1(7-36)NH2 (HVEGTFTSDVSSYLEEQAAKEFIAWLVKGR-NH2)”, the “Aggregation Time” value in data set [1] is over 65 h. Also, the “GLP-1 Receptor Activation” value in the data set on GLP-1 receptor was 1.0.
As to “Val^8-Glu^22-Gln^23-GLP-1(7-37)OH (HVEGTFTSDVSSYLEEQAAKEFIAWLVKGRG)”, the “Aggregation Time” value in data set [1] is over 20 h. Further, in the data set on GLP-1 receptor, the “GLP-1 Receptor Activation” value stood at 0.47.
On the same counts, the results for “Val^8-Glu^22-Lys^23-GLP-1(7-37)OH (HVEGTFTSDVSSYLEEKAAKEFIAWLVKGRG)” are over 65 h and 1.43.
In the same order, the values of “Val^8-Glu^23-GLP-1(7-36)OH (HVEGTFTSDVSSYLEGEAAKEFIAWLVKGR)” are 65 h and 0.28.
In the case of “Val^8-Glu^30-GLP-1(7-37)OH (HVEGTFTSDVSSYLEGQAAKEFIEWLVKGRG)”, the “Aggregation Time” value in data set [1] is 30 h. Besides, the “GLP-1 Receptor Activation” value in the data set on GLP-1 receptor is 0.29.
In the same order, the values of “Val^8-Glu^33-GLP-1(7-37)OH (HVEGTFTSDVSSYLEGQAAKEFIAWLEKGRG)” are over 70 h and 0.039.
For “Val^8-Glu^34-GLP-1(7-37)OH (HVEGTFTSDVSSYLEGQAAKEFIAWLVEGRG)”, the “Aggregation Time in Hours” value in data set [1] was >40* Hours. For the same substance, in the data set with GLP-1 receptor, the “GLP-1 Receptor Activation” value amounted to 0.17.
Regarding “Val^8-Glu^35-GLP-1(7-37)OH (HVEGTFTSDVSSYLEGQAAKEFIAWLVKERG)”, the “Aggregation Time” value in data set [1] came to 63 h. The “GLP-1 Receptor Activation” value with GLP-1 receptor was 0.15.
“Val^8-Glu^36-GLP-1(7-37)OH (HVEGTFTSDVSSYLEGQAAKEFIAWLVKGEG)”: the “Aggregation Time” value in data set [1] was over 45 h. The “GLP-1 Receptor Activation” value in the data set with GLP-1 receptor worked out at 0.11.
Regarding “Val^8-Gly^33-GLP-1(7-37)OH (HVEGTFTSDVSSYLEGQAAKEFIAWLGKGRG)”, in data set [1], the “Aggregation Time” value was 9 h. For the same substance, the “GLP-1 Receptor Activation” value in the data set on GLP-1 receptor stood at 0.01.
For the substance “Val^8-Gly^34-Lys^35-GLP-1(7-37)OH (HVEGTFTSDVSSYLEGQAAKEFIAWLVGKRG)”, the “Aggregation Time” value in data set [1] stood at 27 h. The “GLP-1 Receptor Activation” value in the data set with GLP-1 receptor stood at 0.34.
Consider “Val^8-Gly^36-Pro^37-GLP-1(7-37)NH2 (HVEGTFTSDVSSYLEGQAAKEFIAWLVKGGP-NH2)”, for which the “Aggregation Time” value in data set [1] came to 2 h. Also, the “GLP-1 Receptor Activation” value with GLP-1 receptor came out at 0.53.
Regarding Val^8-Phe^22-GLP-1(7-37)OH, the A280 was found to be 0.31 in data set [2] (setting [3]); 0.1485 in data set [2] (setting [4]); 0.1165 in data set [2] (setting [5]); 0.1015 in data set [2] (setting [6]); 0.1265 in data set [2] (setting [7]); 0.092 in data set [2] (setting [8]). Moreover, the A280 in data set [2] (setting [9]) is 0.061; in data set [2] (setting [10]), 0.00795.
